From patent US20140256613A1 (BOARD OF REGENTS OF THE UNIVERSITY OF OKLAHOMA, published 2014)
Primed or numbered codes have the meaning given here. No end group written: not given here. FITC′ = fluorescein isothiocyanate; Ahx = NCCCCCC(=O)O

Key:
[1] = biological target: T1, recombinant human TLR4-MD2 protein (R&D Systems) (human, UniProt O00206 24-631; Q9Y6Y9 17-160); test: fluorescence polarization, 2 µM FITC-SPA4 with 0-5.6 µM TLR4-MD2, one-site fit, average Kd with blank subtraction; with blank subtraction
T1 construct: range 24-631;range 17-160; Bought protein, described as a mixture of recombinant human TLR4 and MD2 proteins expressed in NS0 cells; also called recombinant-TLR4-MD2 protein; soluble recombinant TLR4-MD2
Method: (§1) Experimental data were curve-fitted using Graphpad Prism program, and the binding affinity (Kd) was determined.
(§2) Lower values of the Kd indicate strong binding affinity.

[2] = biological target: T1, recombinant human TLR4-MD2 protein (R&D …); test: fluorescence polarization, 2 µM FITC-SPA4 peptide with increasing recombinant TLR4-MD2, one-site binding fit, one representative experiment
Method: The background fluorescence polarization values were subtracted and plotted. The binding plot was then fitted into a one-site binding model using standard regression analysis and Kd values were noted. Results are from one representative experiment out of a total of three separate experiments performed at different times.
Regression analysis was carried out using the Graphpad Prism program (Graphpad software, La Zolla, Calif.). Experimental data were curve-fitted using Graphpad Prism program, and the binding affinity (Kd) was determined.

[3] = biological target: T1, recombinant human TLR4-MD2 protein (R&D …); test: fluorescence polarization, 2 µM FITC-SPA4 with 0-5.6 µM TLR4-MD2, one-site fit, average Kd without blank subtraction; without blank subtraction
Method: as §1, §2

T1 sequence (O00206 other isoform, or with tags, fused parts or gaps limits assumed, form in doubt, chain 1 of 2): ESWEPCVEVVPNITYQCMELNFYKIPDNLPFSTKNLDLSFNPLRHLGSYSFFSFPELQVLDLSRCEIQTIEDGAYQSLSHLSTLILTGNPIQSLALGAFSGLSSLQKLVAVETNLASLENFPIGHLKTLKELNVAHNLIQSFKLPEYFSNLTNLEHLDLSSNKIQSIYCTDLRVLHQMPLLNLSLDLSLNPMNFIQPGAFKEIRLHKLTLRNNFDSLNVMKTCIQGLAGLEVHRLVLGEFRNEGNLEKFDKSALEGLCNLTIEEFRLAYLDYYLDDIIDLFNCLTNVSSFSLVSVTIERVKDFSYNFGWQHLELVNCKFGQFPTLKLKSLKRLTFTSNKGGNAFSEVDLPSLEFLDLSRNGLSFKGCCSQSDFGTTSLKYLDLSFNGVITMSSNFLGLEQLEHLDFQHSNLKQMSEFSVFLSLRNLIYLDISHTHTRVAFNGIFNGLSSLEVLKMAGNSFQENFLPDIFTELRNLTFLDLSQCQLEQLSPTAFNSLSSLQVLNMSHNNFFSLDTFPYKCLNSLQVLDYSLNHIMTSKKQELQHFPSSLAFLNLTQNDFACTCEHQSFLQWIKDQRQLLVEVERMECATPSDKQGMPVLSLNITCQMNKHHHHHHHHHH
T1 sequence (Q9Y6Y9 other isoform, or with tags, fused parts or gaps limits assumed, form in doubt, chain 2 of 2): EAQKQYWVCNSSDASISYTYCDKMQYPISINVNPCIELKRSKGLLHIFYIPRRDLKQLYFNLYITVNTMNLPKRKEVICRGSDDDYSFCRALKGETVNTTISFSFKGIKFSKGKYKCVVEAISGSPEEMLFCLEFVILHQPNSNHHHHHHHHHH

B1: FITC-SPA4 peptide (peptide)
peptide: {FITC′-Ahx}-GDFRYSDGTPVNYTNWYRGE
notes: also called fluorescein isothiocyanate conjugated SPA4 peptide
[1]
  Kd: 407 nM
[2]
  Kd: 314 nM
[3]
  Kd: 255 nM
